The source of these data is patent US8741840B2, “BMP-7 for use in treating neointimal hyperplasia” (Washington University, priority 2008, dated 2014).

Assay [1] concerns hVSMC. The assay is described as follows: RT-PCR of osteoblastic differentiation program genes in hVSMC. In kind it is cell-based, human. As to the method: (§1) Cell Culture: Human adult aorta were obtained from seven cadaveric organ donors rejected because of atherosclerosis by Mid-America Transplant Services (St. Louis, Mo.) and enzymatically digested to obtain Human Smooth Muscle Cells (HSMC). Medial tissue was separated from the adventia and intima and digested with collagenase type I (Worthington, Lakewood, N.J.) 2 mg/ml for 1 hr, and washed with Hank's balanced salt solution (HBSS). Further digestion followed with collagenase type II 1 mg/ml (Worthington, Lakewood, N.J.) and elastase 0.25 mg/ml (Worthington, Lakewood, N.J.) for 4 hrs. Cell suspensions were washed twice with HBSS and cultured in T-75 flasks for three weeks in a 95%/5% air/CO2 humidified environment at 37° C. The growth medium used was DMEM containing […] glucose (high glucose), 10% fetal bovine serum (FBS, Atlas, Fort Collins, Colo.), 1 mM sodium pyruvate, 100 units/ml Penicillin and […] Streptomycin (Sigma, St Louis, Mo.). Cell purity was assessed by positive immunostaining for α-smooth muscle actin and calponin and for the absence of von Willebrand factor. In all experimental protocols, cells were seeded at 1×10^5 cells/well in six-well plates. Medium was changed on the first day and every third day thereafter. In all cases, cells used were between passages two and five (Table 3).
RT-PCR: RNA was extracted from cell cultures using RNeasy Mini Kits (Qiagen, Valencia, Calif.). Semi-quantitative RT-PCR was conducted using Roche 1st Strand cDNA Synthesis Kit (Indianapolis, Ind.) and PCR kit from Invitrogen (Grand Island, N.Y.) according to manufacturer's instructions using a two-step method. 1 μg of total RNA was reverse transcribed and random primers were added for 60 min at 42° C., prior to PCR. Forward and Reverse primers (Table 4) were added and the reactions subjected to PCR for 20-35 cycles. The number of cycles necessary to amplify cDNA but remain within the exponential amplification range was determined for each primer set. GAPDH was used as internal standard to assess loading. Genomic contamination was assessed by heat inactivation of the reverse transcriptase prior to RT-PCR. Primers were designed using Vector NTI soft ware (Invitrogen, Grand Island, N.Y.) and optimal conditions for each prime pairs were determined (Table 4). A Perkin-Elmer DNA Thermal Cycler was used to perform the reaction. Products were separated on a 2% agarose E-gel (Invitrogen, Grand Island, N.Y.), and visualized with ethidium bromide. The band intensity was analyzed first by scanning the gel on a Typhoon 9410 gel imager (Amersham Biosciences), quantified by using TotalLab software v2003.03 (Nonlinear Dynamics, Durham, N.C.) and normalized for loading by comparison to GAPGH. Negative controls were performed by inactivating the reverse transcriptase by boiling for 5 min prior to RT-PCR to insure that genomic DNA was not amplified.
Stimulation of osteoblastic differentiation through osterix induction. […] Osterix (E) was only weakly expressed in basal culture conditions. Phosphorus stimulated transcription of osterix (E). […] The data in A-E were normalized to the expression level in basal culture conditions and expressed as fold induction, mean±SEM, n=3. In: Principles of Bone Biology, edited by Bilezikian J P et al., New York, Academic Press, 1996, pp 51-67; Hoffmann H M et al., Proc. Nat. […]

Assay [2] deals with hVSMC. The assay is described as follows: RT-PCR of contractile VSMC markers in hVSMC. In kind it is cell-based, human. As to the method:
as §1
RT-PCR: RNA was extracted from cell cultures using RNeasy Mini Kits (Qiagen, Valencia, Calif.). Semi-quantitative RT-PCR was conducted using Roche 1st Strand cDNA Synthesis Kit (Indianapolis, Ind.) and PCR kit from Invitrogen (Grand Island, N.Y.) according to manufacturer's instructions using a two-step method. […] The number of cycles necessary to amplify cDNA but remain within the exponential amplification range was determined for each primer set. […] Genomic contamination was assessed by heat inactivation of the reverse transcriptase prior to RT-PCR. Primers were designed using Vector NTI soft ware (Invitrogen, Grand Island, N.Y.) and optimal conditions for each prime pairs were determined (Table 4). […] The band intensity was analyzed first by scanning the gel on a Typhoon 9410 gel imager (Amersham Biosciences), quantified by using TotalLab software v2003.03 (Nonlinear Dynamics, Durham, N.C.) and normalized for loading by comparison to GAPGH. […]
Expression of contractile VSMC markers in human cells. […] Calponin (Panel A), alpha smooth muscle actin (alpha SMA) (Panel B), heavy chain myosin (MHSCM) (Panel C), and SM22 alpha (Panel D) message levels detected by RT-PCR were low in hVSMC in basal conditions (open bars, Group A) and in the presence of high phosphorus media (black bars, Group B). […] The data in Panels A-D were normalized to the expression level in basal culture conditions and expressed as fold induction, mean±SEM, n=3. […]

Assay [3] has as its system aortas of LDLR−/− high fat fed mice. The assay is described as follows: Aortic expression of calcification related genes by real time RT-PCR. It is filed as in vivo, mouse. Conditions: CKD mice, BMP-7, 3% CaCO3 or 3% LaCO3 treated. As to the method: Real Time Quantitative RT-PCR: Following reverse transcription performed as above, real time was performed using the MX 4000 (Strategene, La Jolla, Calif.), SYBR Green from Sigma (St. Louis) and the PCR kit from Invitrogen. Each reaction was performed in triplicate at 95° C., 45 sec, and 60° C., 30 sec, and 60 sec at 72° C. for 40 cycles. This was followed by a melt cycle, which consisted of stepwise increase in temperature from 72° C. to 99° C. […] Ct numbers (threshold values) were set within the exponential phase of PCR and were used to calculate the expression levels of the genes of interest. GAPDH was used as an internal standard and used to normalize the values. A standard curve consisting of the cT versus log cDNA dilutions (corresponding to the log copy numbers) was generated by amplifying serial dilutions of cDNA corresponding to an […] amount of amplicon.
Expression of calcification related genes. To relate the mechanism of phosphorus action detected in vitro to this model of CKD induced vascular calcification and hyperphosphatemia in vivo, the inventors of the instant invention analyzed aortic expression of the osteoblastic lineage genes including osterix message levels by real time RT-PCR. […] Data are expressed as the mean of the transcript levels relative to GAPDH expression in each aorta±SEM, N=3. […] (Hoffman 1994;Ducy P. et al., Mol Cell Biol 15:1858-1869, 1995)^32;41

In assay [4] the test system is LDLR−/− mice with CKD on high fat diet. Conditions: LDLR-/- mice with CKD fed high fat diets; previous studies (Davies 2003; Davies 2005); cited from earlier work.

B1: BMP-7: bone morphogenetic protein-7 (osteogenic protein-1), mineralization-countering morphogen; provided by Johnson and Johnson (protein, listed as Homo sapiens)
chain: STGSKQRSQNRSKTPKNQEALRMANVAENSSSDQRQACKKHELYVSFRDLGWQDWIIAPEGYAAYYCEGECAFPLNSYMNATNHAIVQTLVHFINPETVPKPCCAPTQLNAISVLYFDDSSNVILKKYRNMVVRACGCH
As to B1, in assay [1] (2 mM phosphorus plus 10 ng/ml BMP-7 (FIG. 5A)), the osteocalcin expression entry is “inhibited osterix and osteocalcin expression”. In addition, the BMP-2 expression entry in assay [1] (2 mM phosphorus plus 10 ng/ml BMP-7 (FIG. 5B)) is reported as “failed to affect expression”. Moreover, the RUNX2 expression result in assay [1] (2 mM phosphorus plus 10 ng/ml BMP-7 (FIG. 5D)) was “failed to affect expression”. In addition, the osterix expression result in assay [1] (2 mM phosphorus plus 10 ng/ml BMP-7 (FIG. 5E)) is recorded as “strongly inhibited osterix expression”. Besides, the Calponin message level result in assay [2] (high phosphorus media plus BMP-7 (FIG. 8A)) was “induced expression of each of the marker proteins”. For the same molecule, in assay [2] (high phosphorus media plus BMP-7 (FIG. 8B)), the “alpha smooth muscle actin (alpha SMA) message level” value is “induced expression of each of the marker proteins”. Besides, the “heavy chain myosin (MHSCM) message level” value in assay [2] (high phosphorus media plus BMP-7 (FIG. 8C)) was “induced expression of each of the marker proteins”. The “SM22 alpha message level” value in assay [2] (high phosphorus media plus BMP-7 (FIG. 8D)) was “induced expression of each of the marker proteins”. Besides, in assay [3] (relative to GAPDH (FIG. 9B)), the “CBFA1 expression in aorta” value is recorded as “inhibited”. For the same molecule, in assay [3] (relative to GAPDH (FIG. 9C)), the “Osterix expression in aorta” value was “inhibited”. Moreover, the “Osteocalcin expression in aorta” value in assay [3] (relative to GAPDH (FIG. 9D)) is “inhibited”. Further, the “development of aortic calcification (prevention studies)” value in assay [4] was “prevented the development of aortic calcification”.
